Biological target: T1, PPARγ (Homo sapiens, UniProt P37231)
T1 construct: expressed in transfected cells; host or cells: CV-1 (African green monkey kidney)
T1 sequence (P37231 1-477 isoform P37231-2): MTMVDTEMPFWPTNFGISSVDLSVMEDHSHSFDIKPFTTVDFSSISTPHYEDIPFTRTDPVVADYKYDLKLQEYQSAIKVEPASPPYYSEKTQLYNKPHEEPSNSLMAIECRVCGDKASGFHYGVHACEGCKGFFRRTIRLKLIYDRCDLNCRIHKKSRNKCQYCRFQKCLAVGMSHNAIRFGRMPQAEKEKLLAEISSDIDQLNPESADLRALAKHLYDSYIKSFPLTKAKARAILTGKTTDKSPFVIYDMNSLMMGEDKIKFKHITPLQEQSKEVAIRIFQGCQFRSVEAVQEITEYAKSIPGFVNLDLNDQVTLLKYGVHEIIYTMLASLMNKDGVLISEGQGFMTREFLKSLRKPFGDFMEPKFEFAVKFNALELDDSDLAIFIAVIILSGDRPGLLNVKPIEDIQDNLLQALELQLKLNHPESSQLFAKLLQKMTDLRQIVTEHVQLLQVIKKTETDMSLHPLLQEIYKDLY
T1 sequence (P19793 1-462 partner): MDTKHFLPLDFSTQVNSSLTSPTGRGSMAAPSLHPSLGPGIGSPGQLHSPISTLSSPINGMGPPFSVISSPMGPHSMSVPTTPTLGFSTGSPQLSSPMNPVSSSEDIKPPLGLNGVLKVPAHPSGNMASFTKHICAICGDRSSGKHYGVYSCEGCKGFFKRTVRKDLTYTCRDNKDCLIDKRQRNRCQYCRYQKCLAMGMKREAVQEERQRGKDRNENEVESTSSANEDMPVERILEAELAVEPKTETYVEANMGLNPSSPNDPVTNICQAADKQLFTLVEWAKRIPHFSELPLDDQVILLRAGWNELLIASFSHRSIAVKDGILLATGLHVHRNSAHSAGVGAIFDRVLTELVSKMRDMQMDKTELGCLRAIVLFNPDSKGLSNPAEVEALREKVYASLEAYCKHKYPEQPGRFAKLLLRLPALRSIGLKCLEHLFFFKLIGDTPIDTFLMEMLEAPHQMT
Experiment: Reporter gene assay, ERRγ3 coexisted with PPARγ, pGVP2-PPRE1 in CV-1 cells
Type: cell-based
Settings: 10^−6 M rosiglitazone, FIG. 24
Experimental: Transfection was performed as follows: CV-1 cells were resuspended in DMEM supplemented with 10% fetal bovine serum, 2000 U/l of penicillin G, and 100 mg/l of streptomycin to a concentration of 2×10^5 cells/2.5 ml. This was then seeded to a 6-well plate at 2.5 ml per well, and incubated for 18-24 hours in a CO2 incubator at 37° C. and 5% CO2. 1 μg of each of the expression plasmids for the transcription factors, the luciferase reporter plasmid, and another luciferase reporter plasmid used for normalization of the measured values (pRL-TK), were dissolved in Opti-MEM (Gibco BRL), to a total of 150 μl. […] Luciferase activity was measured using the Dual-Luciferase™ Reporter Assay System (Promega). […] The protocol for measurement was as follows: 50 μl of Luciferase Assay Reagent II was added to each well, stirred for 0.3 seconds, and measured for one second. 50 μl of Stop&Glo™ Reagent was then added, stirred for 0.3 seconds, and measured for one second. The measured values for firefly luciferase activity were corrected by dividing by the value for the Renilla luciferase activity, the internal control. Average values and standard errors were calculated from triplicate samples.
The effect of ligands on the function of ERRγ3 in enhancing the transcriptional activation function of peroxisome proliferator activated receptor (PPAR) α, β, or γ was evaluated using the reporter gene assay (FIG. 24). […]

B1: ERRγ3: novel ERRγ isoform, nuclear receptor protein of 396 amino acids (SEQ ID NO: 2) lacking part of the DNA binding domain (protein, listed as Homo sapiens)
chain: MSNKDRHIDSSCSSFIKTEPSSPASLTDSVNHHSPGGSSDASGSYSSTMNGHQNGLDSPPLYPSAPILGGSGPVRKLYDDCSSTIVEDPQTKCEYMLNSMPKRLCLVCGDIASGYHYGVASCEACKAFFKRTIQGVRLDRVRGGRQKYKRRIDAENSPYLNPQLAQPAKKPYNKIVSHLLVAEPEKIYAMPDPTVPDSDIKALTTLCDLADRELVVIIGWAKHIPGFSTLSLADQMSLLQSAWMEILILGVVYRSLSFEDELVYADDYIMDEDQSKLAGLLDLNNAILQLVKKYKSMKLEKEEFVTLKAIALANSDSMHIEDVEAVQKLQDVLHEALQDYEAGQHMEDPRRAGKMLMTLPLLRQTSTKAVQHFYNIKLEGKVPMHKLFLEMLEAKV
For B1, the “modifying effect on the transcriptional stimulation activity of PPARγ” value was “did not show any significant modifying effect”.
